Source: patent publication US20220056142A1 (Sanofi, published 2022)
Residue numbers refer to the chain shown, from its start.

T1: human FGFR3 (human, UniProt P22607 23-375)
T1 construct: also called hFGFR3
T1 sequence: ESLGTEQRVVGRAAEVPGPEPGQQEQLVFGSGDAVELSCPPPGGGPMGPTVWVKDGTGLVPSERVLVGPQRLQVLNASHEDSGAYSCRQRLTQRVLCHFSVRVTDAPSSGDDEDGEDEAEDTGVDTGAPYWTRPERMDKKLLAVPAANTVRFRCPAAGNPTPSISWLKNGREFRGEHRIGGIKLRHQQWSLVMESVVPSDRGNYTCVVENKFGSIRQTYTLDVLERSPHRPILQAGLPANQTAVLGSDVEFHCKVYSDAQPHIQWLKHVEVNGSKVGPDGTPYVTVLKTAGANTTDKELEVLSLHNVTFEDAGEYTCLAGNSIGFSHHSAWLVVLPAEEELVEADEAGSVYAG

T2: mouse FGFR3 (mouse, UniProt Q61851 21-369)
T2 construct: extracellular domain; also called mFGFR3
T2 sequence (looked up): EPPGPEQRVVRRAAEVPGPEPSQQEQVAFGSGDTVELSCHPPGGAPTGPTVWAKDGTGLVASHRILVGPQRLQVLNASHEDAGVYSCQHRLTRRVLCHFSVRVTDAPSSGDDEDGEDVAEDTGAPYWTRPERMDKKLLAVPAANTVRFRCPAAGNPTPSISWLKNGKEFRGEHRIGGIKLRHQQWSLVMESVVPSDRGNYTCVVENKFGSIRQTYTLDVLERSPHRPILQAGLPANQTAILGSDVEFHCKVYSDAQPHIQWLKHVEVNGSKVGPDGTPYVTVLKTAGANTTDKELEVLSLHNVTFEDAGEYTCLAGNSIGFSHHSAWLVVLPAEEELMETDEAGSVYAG

T3: human FGFR3 isoform IIIc (human, UniProt P22607 23-375, limits assumed)
T3 construct: also called hFGFR3IIIc; FGFR3 IIIc
T3 sequence: T1 sequence

T4: human FGFR3 isoform IIIb (human, UniProt P22607-2 23-377)
T4 construct: Isoform IIIb differs from the canonical IIIc entry in the D3 domain; also called hFGFR3IIIb; FGFR3 IIIb
T4 sequence (looked up): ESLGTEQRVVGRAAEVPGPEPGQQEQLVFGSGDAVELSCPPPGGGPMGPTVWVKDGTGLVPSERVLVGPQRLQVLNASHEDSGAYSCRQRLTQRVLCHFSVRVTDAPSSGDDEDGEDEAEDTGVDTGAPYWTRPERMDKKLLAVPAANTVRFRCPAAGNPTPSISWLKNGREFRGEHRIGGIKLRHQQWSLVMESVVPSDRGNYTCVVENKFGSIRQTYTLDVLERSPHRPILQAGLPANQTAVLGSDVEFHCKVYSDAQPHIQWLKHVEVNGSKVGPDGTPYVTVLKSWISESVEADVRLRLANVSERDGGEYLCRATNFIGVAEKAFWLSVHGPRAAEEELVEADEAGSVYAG

T5: cynomolgus FGFR3 (cynomolgus)
T5 construct: also called cynoFGFR3
T5 chain: T1 sequence with A13V, P17S, G22S, T57A, R94L, R171K

T6: N-terminal ECD protein of mouse FGFR3 with a terminal avidin tag (mouse, UniProt Q61851 21-369)
T6 construct: extracellular domain; not shown: terminal avidin tag
T6 sequence (looked up): T2 sequence (looked up)

B1: KE63 (antibody, V domains shown)
VH: QVQLQQSGAELVRPGASVTLSCKASGSTFSDFEIHWVKQTPVHGLEWIGGIDPETGGTAYNQKFKGKAILTADRSSSTAYMELRSLTSEDSAVYYCTRNYDGYSQTMDYWGQGTSVTVSS
VL: NIMMTQSPSSLAVSAGEKVTMSCKSSQSVLYSSNQKNYLAWYQQKPGQSPKLLIYWASTRESGVPDRFTGSGSGTDFTLTISSVQAEDLAVYYCHQYLSSYTFGGGTKLEMK
notes: Mouse hybridoma monoclonal antibody
B2: KC18 (antibody, V domains shown)
VH: B1 VH with S27D, S30T, G50D, K65R, K67R, I69M, N99T, S104P, Q105Y, T106A
VL: DIVMSQSPSSLAVSVGEKVTMSCKSSQSLLYSNNQKNYLAWYQQKPGQSPKLLIYWASTRESGVPDRFTGSGSGTDFTLTISSVKAEDLAVYYCQQYYSYRTFGGGTKLEIK
notes: Mouse hybridoma antibody; also called parental KC18 antibody
B3: KC18 (antibody, V domains shown)
VH: B1 VH with S27D, S30T, G50D, K65R, K67R, I69M, N99T, S104P, Q105Y, T106A
VL: B2 VL
notes: Mouse monoclonal antibody from a hybridoma; also called anti-FGFR3 antibody KC18; KC18 mouse antibody
B4: KE63 (antibody, V domains shown)
VH: B1 VH
VL: B1 VL
notes: Mouse monoclonal antibody from a hybridoma; also called anti-FGFR3 antibody KE63
B5: KE94 (antibody, V domains shown)
VH: B1 VH with S30T, G50A, D73V, R74K, E82G, Q105R
VL: B1 VL with T78S, T80S, A86T, K108R
notes: Mouse monoclonal antibody from a hybridoma; also called anti-FGFR3 antibody KE94
B6: KC18_Hu16 (antibody, human IgG1, kappa, V domains shown)
VH: EVQLVQSGAEVKKPGATVKLSCKASGDTFTDFEIHWVQQAPGKGLEWIGDVDPETGGTAYAEKFQGRATLTADRSTDTAYMELSSLRSEDTAVYYCTRTYDGYPYAMDYWGQGTLVTVSS
VL: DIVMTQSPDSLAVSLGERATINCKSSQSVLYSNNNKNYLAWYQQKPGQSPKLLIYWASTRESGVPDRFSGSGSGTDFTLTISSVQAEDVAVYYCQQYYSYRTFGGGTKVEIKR
B7: KC18_Hu27 (antibody, human IgG1, kappa, V domains shown)
VH: B6 VH with E1Q, K12V, Q38K, V51I, A61N, D77S, L115T
VL: DIVMTQSPSSLAVSLGERVTMNCKSSQSLLYSNNQKNYLAWYQQKPGQSPKLLIYWASTRESGVPDRFSGSGSGTDFTLTISSVQAEDVAVYYCQQYYSYRTFGGGTKLEIKR
B8: KC18_Hu19 (antibody, human IgG1, kappa, V domains shown)
VH: B6 VH with E1Q, K12V, L20I, V51I, A61N, D77S, T97A, L115T
VL: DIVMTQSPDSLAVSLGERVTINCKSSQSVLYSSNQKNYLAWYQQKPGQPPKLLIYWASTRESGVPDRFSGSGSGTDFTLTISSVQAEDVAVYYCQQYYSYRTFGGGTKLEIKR
B9: KC18_Hu18 (antibody, human IgG1, kappa, V domains shown)
VH: B6 VH with M107F
VL: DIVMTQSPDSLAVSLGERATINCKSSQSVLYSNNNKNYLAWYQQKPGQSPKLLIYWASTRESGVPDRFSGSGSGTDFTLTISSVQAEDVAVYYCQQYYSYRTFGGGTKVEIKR
B10: KC18_Hu13 (antibody, human IgG1, kappa, V domains shown)
VH: B6 VH with E1Q, T17S, L20V, Q38R, K43Q, V51I, G57S, A59S, E62Q, D77S
VL: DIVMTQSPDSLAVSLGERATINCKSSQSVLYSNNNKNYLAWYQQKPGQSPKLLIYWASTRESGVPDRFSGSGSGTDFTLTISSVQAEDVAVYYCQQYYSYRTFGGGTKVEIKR
B11: KC18_Hu12 (antibody, human IgG1, kappa, V domains shown)
VH: B6 VH with M107F
VL: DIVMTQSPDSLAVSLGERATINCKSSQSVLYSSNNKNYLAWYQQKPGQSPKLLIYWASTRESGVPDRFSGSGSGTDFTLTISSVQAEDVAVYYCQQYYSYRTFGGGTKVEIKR
B12: KC18_Hu23 (antibody, human IgG1, kappa, V domains shown)
VH: B6 VH with E1Q, K12V, L20I, V51I, A61N, D77S, T97A, L115T
VL: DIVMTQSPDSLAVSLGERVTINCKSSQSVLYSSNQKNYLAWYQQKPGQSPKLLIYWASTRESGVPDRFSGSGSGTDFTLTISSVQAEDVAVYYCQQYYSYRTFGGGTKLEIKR
B13: KC18_Hu7 (antibody, human IgG1, kappa, V domains shown)
VH: B6 VH with E1Q, T17S, L20V, Q38R, K43Q, V51I, G57S, A59S, E62Q, D77S
VL: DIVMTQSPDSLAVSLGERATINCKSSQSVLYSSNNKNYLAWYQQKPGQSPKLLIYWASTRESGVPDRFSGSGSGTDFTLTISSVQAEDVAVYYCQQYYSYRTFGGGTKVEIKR
B14: KC18_Hu10 (antibody, human IgG1, kappa, V domains shown)
VH: B6 VH
VL: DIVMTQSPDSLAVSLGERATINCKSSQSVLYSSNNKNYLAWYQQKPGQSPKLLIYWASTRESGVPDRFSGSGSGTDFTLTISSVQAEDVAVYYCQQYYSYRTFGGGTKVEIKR
B15: KE58 (antibody, V domains shown)
VH: EVQLQQSGPDLVKPGASVKISCKASGYTVTDYYMNWVKQSHGKSLEWIGDINPNNGVTTYNQKFKDKATLTVDKSSSTAYMELRSLTSEDSAVYYCAREEDFDGFDYWGQGTTLTVSS
VL: DIVMTQSHKFMSTSVGDRVSITCKASQDVSTGVAWYQQKPGQSPQLLIYWASTRHTGVPDRFTGSGSGTDYILTIRSVQAEDLALYYCQQHYSTPLTFGAGTKLELK
notes: Mouse monoclonal antibody from a hybridoma; also called anti-FGFR3 antibody KE58
B16: KC18_Hu28 (antibody, human IgG1, kappa, V domains shown)
VH: QVQLVQSGAEVVKPGASVKLSCKASGDTFTDFEIHWVKQAPGQGLEWIGDIDPETGGTAYNQKFQGRATLTADRSSSTAYMELSRLRSDDTAVYYCTRTYDGYPYAMDYWGQGTTVTVSS
VL: B7 VL
B17: KC18_Hu34 (antibody, human IgG1, kappa, V domains shown)
VH: B16 VH
VL: DIVMTQSPLSLAVTVGEKVSISCRSSQSLLYSNNQKNYLAWYQQKPGQSPKLLIYWGSTRESGVPDRFSGSGSGTDFTLTISRVEAEDVGVYYCQQYYSYRTFGGGTKLEIKR
B18: KE35 (antibody, V domains shown)
VH: EVQLQQSGPELVKPGASVKMSCKASGYTFTDYNMHWVKQSHGKSLEWIGYINPNNGGTRYNQKFKGKATLTVNKSSSTAYMELRSLTSEDSAVYYCARERDYDGAMDYWGQGTSVTVSS
VL: DIQMTQSPSSLSASLGGKVTITCKASQDINKFIAWYQHKPGKGPRLLIHYTSTLQPGIPSRFSGSGSGRDYSFSISNLEPEDIATYYCLQYDNLLWTFGGGTKLEIK
notes: Mouse monoclonal antibody from a hybridoma; also called anti-FGFR3 antibody KE35
B19: KE42 (antibody, V domains shown)
VH: B18 VH with E46Q, R59N, K63N, G66D, S77T, A105S, Y108F
VL: B18 VL with Y87F
notes: Mouse monoclonal antibody from a hybridoma; also called anti-FGFR3 antibody KE42

What was measured:
[1] = biological target: T7, wild-type human FGFR3 isoform IIIc, full length, expressed on transfected cells (human, UniProt P22607 23-806); test: FACS, cells transfected with wild-type FGFR3
T7 construct: also called wild-type FGFR3; FGFR3-300.19
Protocol: (§1) After three washes, the cells were incubated with a fluorescent-conjugated secondary antibody (Invitrogen).

[2] = biological target: T8, human FGFR3 G380R isoform IIIc, full length, expressed on transfected cells (human, UniProt P22607 23-806); test: FACS, cells transfected with mutant FGFR3 (G380R)
T8 construct: also called mutant FGFR3; FGFR3^G380R-300.19
Protocol: as §1

[3] = biological target: T1, human FGFR3; test: affinity table; method not restated (Biacore SPR per Example 1)
[4] = biological target: T2, mouse FGFR3; test: as above
[5] = biological target: T3, human FGFR3 isoform IIIc; test: reactivity grade (Table 2); method not given
[6] = biological target: T4, human FGFR3 isoform IIIb; test: reactivity grade (Table 2); method not given
[7] = biological target: T5, cynomolgus FGFR3; test: reactivity grade (Table 2); method not given
[8] = biological target: T6, N-terminal ECD protein of mouse FGFR3 …; test: SPR (Biacore), FGFR3 ECD immobilised on chip, antibody injected, 1:1 fit
Protocol: The N-terminal ECD proteins of FGFR3 from human and mouse were produced with a terminal avidin tag and used in a forward format Biacore assay where proteins were immobilized on a Biacore chip and then the kinetics of antibody interaction with the proteins on the chip were determined. The proteins were immobilized on a Biacore chip for approximately 10,000 response units (RU). Then the antibodies were exposed to the chip for kinetic measurements, following the manufacturer's recommendations (GE Healthcare). Sensorgrams were fit to a 1:1 binding model and analyzed using double-reference subtraction by T200 Evaluation software (GE Healthcare).

Row | Binder | Kd [3] [nM] | Kd [4] [nM] | binding result [5] | binding result [6] | binding result [7] | Kd [8] [nM] | koff [8] [s⁻¹] | kon [8] [M⁻¹ s⁻¹] | other results
1 | B1 |  |  |  |  |  |  |  |  | binding result [1]: binds; binding result [2]: binds
2 | B2 | 2.73 | 3.78 |  |  |  |  |  |  | 
3 | B3 |  |  | binds | binds | binds | 6.3 | 0.0011 | 174000 | 
4 | B4 |  |  | binds | binds | binds | 6.7 | 0.00291 | 436000 | 
5 | B5 |  |  | binds | binds | binds | 2.1 | 0.00148 | 705000 | 
6 | B6 | 3.76 | 4.23 |  |  |  |  |  |  | 
7 | B7 | 3.9 | 4.6 |  |  |  |  |  |  | 
8 | B8 | 2.99 | 3.78 |  |  |  |  |  |  | 
9 | B9 | 1.25 | 1.42 |  |  |  |  |  |  | 
10 | B10 | 4.52 | 5.28 |  |  |  |  |  |  | 
11 | B11 | 1.61 | 1.73 |  |  |  |  |  |  | 
12 | B12 | 2.68 | 3.35 |  |  |  |  |  |  | 
13 | B13 | 5.41 | 6.36 |  |  |  |  |  |  | 
14 | B14 | 4.73 | 5.15 |  |  |  |  |  |  | 
15 | B15 |  |  | binds | binds | binds | 5.5 | 0.000918 | 167000 | 
16 | B16 | 4.46 | 5.41 |  |  |  |  |  |  | 
17 | B17 | 6.85 | 8.14 |  |  |  |  |  |  | 
18 | B18 |  |  | binds | binds | binds | 1.89 | 0.00108 | 571000 | 
19 | B19 |  |  | binds | binds | binds | 0.81 | 0.0006 | 739000 | 
